Results published in patent publication US20050026839A1 (GENERAL HOSPITAL, published 2005).
Read-outs that look alike come from different tables or passages of the source. Square brackets hold non-standard residues; d marks the D form. Ends that are not written are not given here. hArg = N=C(N)NCCCC[C@H](N)C(=O)O; Nle = CCCC[C@H](N)C(=O)O; Aib = CC(C)(N)C(=O)O

How the values were obtained:
[1] = target: T1, wild-type human PTH/PTHrP receptor (hP1R-WT) (human, UniProt Q03431 27-593); experiment: cell-based or functional assay
T1 sequence (looked up): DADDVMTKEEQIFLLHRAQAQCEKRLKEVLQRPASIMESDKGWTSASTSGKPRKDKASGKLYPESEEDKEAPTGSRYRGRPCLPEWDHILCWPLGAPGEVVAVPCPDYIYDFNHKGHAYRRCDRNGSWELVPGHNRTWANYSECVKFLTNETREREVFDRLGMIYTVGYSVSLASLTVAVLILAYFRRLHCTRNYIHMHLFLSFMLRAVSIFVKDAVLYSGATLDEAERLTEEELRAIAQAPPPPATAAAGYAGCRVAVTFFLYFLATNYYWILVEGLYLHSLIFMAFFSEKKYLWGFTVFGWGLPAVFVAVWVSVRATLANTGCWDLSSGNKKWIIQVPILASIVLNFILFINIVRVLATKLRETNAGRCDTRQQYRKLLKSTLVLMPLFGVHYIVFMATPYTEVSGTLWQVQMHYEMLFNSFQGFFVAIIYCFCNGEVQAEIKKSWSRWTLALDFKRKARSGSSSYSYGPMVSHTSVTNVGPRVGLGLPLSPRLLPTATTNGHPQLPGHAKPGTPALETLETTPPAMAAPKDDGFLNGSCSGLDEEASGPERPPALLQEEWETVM

[2] = target: T2, truncated human P1R deleted for residues (24-181) (hP1R-delNt) (human, UniProt Q03431 182-593); experiment: competition binding, 125I-[Aib1,3,M]PTH(1-21) tracer, COS-7 cells expressing hP1R-delNt
T2 construct: whole, on cells; also called delNT receptor
T2 sequence (looked up): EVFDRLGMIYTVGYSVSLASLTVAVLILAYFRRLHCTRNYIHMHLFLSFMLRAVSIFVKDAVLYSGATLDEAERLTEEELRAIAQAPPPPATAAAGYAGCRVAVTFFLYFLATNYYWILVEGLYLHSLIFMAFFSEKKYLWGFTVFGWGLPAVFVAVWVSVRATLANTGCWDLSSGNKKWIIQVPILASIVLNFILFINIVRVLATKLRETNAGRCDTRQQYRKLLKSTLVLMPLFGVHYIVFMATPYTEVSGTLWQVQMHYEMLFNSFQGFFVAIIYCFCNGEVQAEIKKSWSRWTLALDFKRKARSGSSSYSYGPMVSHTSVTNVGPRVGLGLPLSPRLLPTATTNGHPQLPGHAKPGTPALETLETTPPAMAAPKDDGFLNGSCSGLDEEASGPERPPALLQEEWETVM
Protocol: Stock solutions of EGTA/trypsin and antibiotics were from GIBCO; fetal bovine serum was from Hyclone Laboratories (Logan, Utah). […] All cells, in 24-well plates, were treated with fresh media and shifted to 33° C. for 12 to 24 h prior to assay.
(§1) Competition Binding. Binding reactions were performed with HKRK-B28 cells or in COS-7 cells in 24-well plates. The cells were rinsed with 0.5 mL of binding buffer, and then treated successively with 100 μL binding buffer, 100 μL of binding buffer containing various amounts of unlabeled competitor ligand, and 100 μL of binding buffer containing ca. 100,000 cpm of ¹²⁵I-[M]PTH(1-21) or ¹²⁵I-[Aib^{1,3},M]PTH(1-21)} (ca. 26 fmol; final volume=300 μL). Incubations were 4 to 6 h at 4° C., at which time near equilibrium conditions were attained. Cells were then placed on ice, the binding medium was removed, and the monolayer was rinsed three times with 0.5 mL of cold binding buffer. The cells were subsequently lysed with 0.5 mL […] NaOH and counted for radioactivity. For each tracer and in each experiment, the non-specific binding was determined as the radioactivity that bound in the presence of the same unlabeled peptide at a concentration of 1 μM, and was ˜1% of total radioactivity added for each tracer. The maximum specific binding (B₀) was the total radioactivity bound in the absence of competing ligand, corrected for nonspecific binding, and for each tracer, ranged from 8% to 20% of the total radioactivity added. Nonlinear regression was used to calculate binding IC₅₀ values (see below). Scatchard transformations of homologous competition binding data derived from studies with 26 fmol of ¹²⁵I-[Aib^{1,3},M]PTH(1-21) were employed for estimations of apparent equilibrium dissociation constant (kDapps) and total number of ligand binding sites (Bₘₐₓ), assuming a single class of binding sites and equal affinities of the iodinated and non iodinated ligand.

[3] = target: T2, truncated human P1R deleted for …; experiment: cell-based or functional assay
[4] = target: T1, wild-type human PTH/PTHrP receptor …; experiment: cell-based or functional assay; remark: listed apart in the source
[5] = target: T1, wild-type human PTH/PTHrP receptor …; experiment: competition binding, 125I-[Aib1,3,M]PTH(1-21) tracer, COS-7 cells expressing hP1R-WT
Protocol: as §1

[6] = target: T1, wild-type human PTH/PTHrP receptor …; experiment: competition binding, 125I-[M]PTH(1-21) tracer, HKRK-B28 cells, 4 h at 4 C
Outline: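 Cells are incubated with about 26 fmol ¹²⁵I-[M]PTH(1-21) tracer and unlabeled competitor in 300 μL for 4 h at 4 °C, then washed, lysed and counted. Nonspecific binding is defined with 1 μM of the same unlabeled peptide. IC50 values come from nonlinear regression, and the peptides are rat-PTH-based and C-terminally amidated.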

| Binder | cAMP EC50 [1] | cAMP EMax(obs.) [1] | IC50 [2] | PLC EC50 [3] | PLC EMAX(obs.) [3] | cAMP EC50 [3] | cAMP EMax(obs.) [3] | PLC EC50 [4] | PLC EMAX(obs.) [4] | cAMP EC50 [4] | cAMP EMax(obs.) [4] | IC50 [5] | IC50 [6] |
| --- | --- | --- | --- | --- | --- | --- | --- | --- | --- | --- | --- | --- | --- |
| [Aib]V[Aib]EIQLMHQ[hArg]AKW-NH2 (N-terminus assumed; SMILES CC[C@H](C)[C@H](NC(=O)[C@H](CCC(=O)O)NC(=O)C(C)(C)NC(=O)[C@@H](NC(=O)C(C)(C)N)C(C)C)C(=O)N[C@@H](CCC(N)=O)C(=O)N[C@@H](CC(C)C)C(=O)N[C@@H](CCSC)C(=O)N[C@@H](Cc1c[nH]cn1)C(=O)N[C@@H](CCC(N)=O)C(=O)N[C@@H](CCCCNC(=N)N)C(=O)N[C@@H](C)C(=O)N[C@@H](CCCCN)C(=O)N[C@@H](Cc1c[nH]c2ccccc12)C(N)=O, also called 671 [Aib^1,3, M]PTH (1-14); 671 [Aib^1,3M]PTH(1-14)) [[Aib^1,3,M]PTH(1-14)] | 1.1 nM | 278 pmole/well | 1600 nM | 130 nM | 3.1 foldxbasal | 0.73 nM | 250 pmole/well | 71 nM | 4.3 foldxbasal | 1.2 nM | 240 pmole/well | 2250 nM | 130 nM |
| [Aib]V[Aib]EIQL[Nle]HQ[hArg]AKWLASVRRY-NH2 (N-terminus assumed; SMILES CCCC[C@H](NC(=O)[C@H](CC(C)C)NC(=O)[C@H](CCC(N)=O)NC(=O)[C@@H](NC(=O)[C@H](CCC(=O)O)NC(=O)C(C)(C)NC(=O)[C@@H](NC(=O)C(C)(C)N)C(C)C)[C@@H](C)CC)C(=O)N[C@@H](Cc1c[nH]cn1)C(=O)N[C@@H](CCC(N)=O)C(=O)N[C@@H](CCCCNC(=N)N)C(=O)N[C@@H](C)C(=O)N[C@@H](CCCCN)C(=O)N[C@@H](Cc1c[nH]c2ccccc12)C(=O)N[C@@H](CC(C)C)C(=O)N[C@@H](C)C(=O)N[C@@H](CO)C(=O)N[C@H](C(=O)N[C@@H](CCCNC(=N)N)C(=O)N[C@@H](CCCNC(=N)N)C(=O)N[C@@H](Cc1ccc(O)cc1)C(N)=O)C(C)C, unlabeled peptide; also called 674 [Aib^1,3, M]PTH (1-21); 674 [Aib^1,3M]PTH(1-21)) [[Aib^1,3,M]PTH(1-21)] | 4.3 nM | 284 pmole/well | 27 nM | – | – | 0.38 nM | 240 pmole/well | – | – | 0.8 nM | 300 pmole/well | 28 nM | 31 nM |
